The data set is described as follows: Stability of S-nitrosothiols (NAT conversion from DAN). The following applies: within 15 min of incubation.

B1: S-nitroso-MMP-9: S-nitrosylation product of SNOC-treated R-proMMP-9 (protein, UniProt P14780 20-707, looked up)
pro-form: APRQRQSTLVLFPGDLRTNLTDRQLAEEYLYRYGYTRVAEMRGESKSLGPALLLLQKQLSLPETGELDSATLKAMRTPRCGVPDLGRFQTFEGDLKWHHHNITYWIQNYSEDLPRAVIDDAFARAFALWSAVTPLTFTRVYSRDADIVIQFGVAEHGDGYPFDGKDGLLAHAFPPGPGIQGDAHFDDDELWSLGKGVVVPTRFGNADGAACHFPFIFEGRSYSACTTDGRSDGLPWCSTTANYDTDDRFGFCPSERLYTQDGNADGKPCQFPFIFQGQSYSACTTDGRSDGYRWCATTANYDRDKLFGFCPTRADSTVMGGNSAGELCVFPFTFLGKEYSTCTSEGRGDGRLWCATTSNFDSDKKWGFCPDQGYSLFLVAAHEFGHALGLDHSSVPEALMYPMYRFTEGPPLHKDDVNGIRHLYGPRPEPEPRPPTTTTPQPTAPPTVCPTGPPTVHPSERPTAGPTGPPSAGPTGPPTAGPSTATTVPLSPVDDACNVNIFDAIAEIGNQLYLFKDGKYWRFSEGRGSRPQGPFLIADKWPALPRKLDSVFEERLSKKLFFFSGRQVWVYTGASVLGPRRLDKLGLGADVAQVTGALRSGRGKMLLFSGRRLWRFDVKAQMVDPRSASEVDRMFPGVPLDTHDVFQYREKAYFCQDRFYWRVSSRSELNQVDQVGYVTYDILQCPED
modifications: pro-form S-nitrosylated
As for B1, the remained result was “over 80%”.

The values are drawn from US20090209615A1, “INHIBITORS OF MATRIX METALLOPROTEINASES TO TREAT NEUROLOGICAL DISORDERS” (priority 2004, published 2009).
